Data published in patent US20230002503A1 (BIOTHEUS, published 2023).
Numbering of substitutions follows the chain as printed.

B1: H-YE-05 (Fc fusion)
chain: QVQLQESGGGLVQPGGSRRLSCAASGNSVNIFSFAAVAWYRQAPGKQRELVAVITTTGGTKYSDSVKGRFTISRDSAKNTVLLQMNSLKPEDTAVYYCNADYLQDYWGQGTQVTVSS
notes: also called CAIX nanobody H-YE-05; not shown: human IgG1 Fc segment
B2: H-YE-23 (Fc fusion)
chain: B1 chain with R18L, V29A, A36S, T56S, T57A, S76N, V81I, A100V
notes: also called CAIX nanobody H-YE-23; WYE-23; not shown: human IgG1 Fc segment
B3: H-YE-32 (Fc fusion)
chain: QVQLQESGGGLVQPGGSLRLSCAASGGARNIFSFAAMAWYRQAPGKQRELVAVITSAGGTQYSSSVKGRFTISRDNAKKTVLLQMNSLKPEDTAVYYCNADYYQDYWGQGTQVTVSS
notes: also called CAIX nanobody H-YE-32; not shown: human IgG1 Fc segment
B4: Hu-H-YE-05-D4 (Fc fusion)
chain: B1 chain with Q1E, Q5L, A77S, L82Y, K89R, P90A
notes: also called humanized recombinant antibody from H-YE-05; not shown: human IgG1 Fc segment
B5: Hu-H-YE-05-D3 (Fc fusion)
chain: EVQLLESGGGLVQPGGSLRLSCAASGNSVNIFSFAAMSWYRQAPGKGLELVAVITTTGGTKYSDSVKGRFTISRDNSKNTLYLQMNSLRAEDTAVYYCNADYLQDYWGQGTQVTVSS
notes: as for B4
B6: Hu-H-YE-23-D2 (Fc fusion)
chain: QVQLVESGGGLVQPGGSLRLSCSASGNSANIFSFASVAWYRQAPGKGLELVSVITSAGGTKYSDSVKGRFTISRDNSKNTLYLQMNSLRAEDTAVYYCNVDYLQDYWGQGTLVTVSS
notes: T0013 prints the label as Hu-H-YB-23-D2; also called Hu-H-YB-23-D2; humanized recombinant antibody from H-YE-23; not shown: human IgG1 Fc segment
B7: Hu-H-YE-32-D6 (Fc fusion)
chain: B3 chain with Q5V, A23S, Q47G, R48L, A77S, V81L, L82Y, K89R, P90A
notes: also called humanized antibody from H-YE-32; not shown: human IgG1 Fc segment
B8: Hu-H-YE-32-D5 (Fc fusion)
chain: QVQLVESGGGLVQPGGSLRLSCSASGGARNIFSFAAMHWYRQAPGKGLELVAVITSAGGTYYADSVKGRFTISRDNSKKTLYLQMNSLRAEDTAVYYCNADYYQDYWGQGTQVTVSS
notes: T0013 prints the label as Hu-H-YB-32-D5; also called Hu-H-YB-32-D5; humanized antibody from H-YE-32; not shown: human IgG1 Fc segment
B9: H-YE-03 (Fc fusion)
chain: QVQLQESGGGLVQPGGSLRLSCTASTSSFNFQTMGWYRQAPGKQRELVATITSRAITNYADSVKGRFTISRDNAAKTVSLQMNSLKPEDTAVYYCNAAWIGDYWGQGTQVTVSA
notes: also called CAIX nanobody H-YE-03; not shown: human IgG1 Fc segment
B10: H-YE-04 (Fc fusion)
chain: B9 chain with M34L, K43N, A114S
notes: also called CAIX nanobody H-YE-04; not shown: human IgG1 Fc segment
B11: H-YE-24 (Fc fusion)
chain: B1 chain with R18L, S33R, V37M, T56S, T57A, S76N
notes: also called CAIX nanobody H-YE-24; not shown: human IgG1 Fc segment
B12: H-YE-25 (Fc fusion)
chain: B1 chain with R18L, S33R, V37M
notes: also called CAIX nanobody H-YE-25; not shown: human IgG1 Fc segment
B13: H-YE-26 (Fc fusion)
chain: B1 chain with P14A, R18L, S33R, A36T, K46E, T56S, T57A, S76N, Y102F
notes: also called CAIX nanobody H-YE-26; not shown: human IgG1 Fc segment
B14: H-YE-33 (Fc fusion)
chain: QVQLQESGGGLVQPGGSLRLSCAASGGDFRFYDMGWYRQAPGKQRELVAGITTRGYTNYADVVKGRFTISRDNAKNTVYLEMNSLKPEDTAVYSCSASHFLGGRIDYWGQGTQVTVSS
notes: also called CAIX nanobody H-YE-33; not shown: human IgG1 Fc segment
B15: H-YE-37 (Fc fusion)
chain: QVQLQESGGGLMHDGDSLRLSCAASGRTFSTYAMGWFRQAPGKEREFVAAISWSGGSTYYADSVKGRFTISRDNAKNTVYLQMNSLKPEDTAVYYCAAEGIYNSGSSYHDANGYDYWGQGTQVTVSS
notes: also called CAIX nanobody H-YE-37; not shown: human IgG1 Fc segment
B16: H-YE-40 (Fc fusion)
chain: QVQLQESGGGLVQAGGSLRLSCAASGRTFSSYAMGWFRQAPGKEREFVATISWNGGSTYYADSVKGRFTISRDNAKNTVYLQMNSLKPEDTAVYYCAAEHDLGELAGTGYDYWGQGTQVTVSS
notes: also called CAIX nanobody H-YE-40; not shown: human IgG1 Fc segment
B17: H-YE-38 (Fc fusion)
chain: QVQLQESGGGLMQPGGSLTLSCAVPRFTLDYYAIGWFRQAPGKEREFVAAISWSGGTTQYSDSAKGRFTISRDNSKNTGYLQMNSLKPEDTATYYCAAGRQLEWRTYDYWGQGTQVTVSS
notes: also called CAIX nanobody H-YE-38; not shown: human IgG1 Fc segment

molecular target: T1, murine CAIX on CHO cells (CHO-mCAIX) (mouse, UniProt Q8VHB5 32-437); assay: flow cytometry on CHO-mCAIX cells
T1 construct: whole, on cells; also called mouse CAIX
T1 sequence (Q8VHB5 32-437): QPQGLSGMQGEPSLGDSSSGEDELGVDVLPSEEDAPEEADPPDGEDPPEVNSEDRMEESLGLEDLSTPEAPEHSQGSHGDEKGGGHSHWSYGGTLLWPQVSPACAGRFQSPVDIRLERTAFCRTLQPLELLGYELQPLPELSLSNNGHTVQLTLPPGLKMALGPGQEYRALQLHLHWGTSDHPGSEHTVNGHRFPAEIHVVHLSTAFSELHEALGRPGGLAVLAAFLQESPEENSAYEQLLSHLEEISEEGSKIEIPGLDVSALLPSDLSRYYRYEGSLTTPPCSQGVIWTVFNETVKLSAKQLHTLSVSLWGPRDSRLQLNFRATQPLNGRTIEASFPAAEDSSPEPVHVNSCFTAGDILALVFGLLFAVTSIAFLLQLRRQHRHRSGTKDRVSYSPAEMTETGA
Experimental: (§1) CHO cells overexpressing human CAIX (CHO-hCAIX cells) were generated by the pCHO1.0 vector (purchased from Invitrogen) transfected with CAIX cDNA. The cell density of the proliferated CHO-CAIX cells were adjusted to 2×10⁶ cells/ml, added at 100 μL/well to a 96-well flow cytometry plate, and centrifuged for later use. The purified CAIX antibody was diluted with PBS, and 3-fold dilution was started from 400 nM for a total of 12 points, and 100 μL/well of the above diluted sample was added to the above-mentioned 96-well flow cytometry plate with the cells, incubated at 4° C. for 30 min, and washed with PBS for two times. Goat F(ah′)2 Anti-Human IgG-Fc(PE) (purchased from Abeam, ab98596) diluted 100 times with PBS was added at 100 μL/well, incubated at 4° C. for 30 min, and washed twice with PBS. PBS was added at 100 μl/well to resuspend the cells, the cells were detected on a CytoFlex (Bechman) flow cytometer, and the corresponding MFI was calculated.
In order to identify the affinity of the antibody to murine CAIX (mCAIX) at cell level, the cell stain was constructed according to the method described in Example 4, the affinity of the purified humanized antibody to CHO-mCAIX at cell level was identified, and the results were shown in FIG. 4 and Table 7.

B1 and B2 are within 1.5-fold of each other in EC50: 31.7 nM for the first, 38.1 nM for the second.

First: B3
Second: B4
The EC50 of the first is 1.7-fold lower: 34.1 nM for the first, 58.8 nM for the second. The first is the more potent here.

Compared with B5, B6 is 2.1-fold higher in EC50: 20.8 nM for the first, 43.7 nM for the second.

Going from B7 to B8, the EC50 rises from 59.6 nM to 552 nM (9.3-fold). The first is the more potent here.

molecular target: T2, human CAIX on CHO cells (CHO-hCAIX) (human, UniProt Q16790 38-459); assay: flow cytometry on CHO-hCAIX cells
Experimental: as §1
The purified humanized antibodies were subjected to the detection of binding capacity of the purified humanized nanobody to CHO-hCAIX at cell level according to the method described in Example 4, and the results were shown in FIG. 2 and Table 5.

B1 and B2 are within 1.5-fold of each other in EC50: 4.55 nM for the first, 3.11 nM for the second.

First: B3
Second: B4
The EC50 of the first is 2.9-fold higher: 14.6 nM for the first, 5.07 nM for the second.

Compared with B5, B6 is 2-fold higher in EC50: 4.46 nM for the first, 8.71 nM for the second. The first is the more potent here.

First: B7
Second: B8
The EC50 of the first is 4.1-fold higher: 9.61 nM for the first, 2.33 nM for the second.

molecular target: T2, human CAIX on CHO cells (CHO-hCAIX); assay: flow cytometry on CHO-hCAIX cells, anti-human IgG-Fc PE
Experimental: as §1

B9 and B10 are within 1.5-fold of each other in EC50: 7.34 nM for the first, 7.78 nM for the second.

First: B11
Second: B1
The EC50 of the first is 2.9-fold lower: 3.06 nM for the first, 8.79 nM for the second.

B2 and B12 are within 1.5-fold of each other in EC50: 3.55 nM for the first, 2.44 nM for the second.

B13 and B3 are within 1.5-fold of each other in EC50: 4.46 nM for the first, 6.14 nM for the second.

First: B14
Second: B15
The EC50 of the first is 2.2-fold lower: 2.78 nM for the first, 6.07 nM for the second.

B16 was tested, and the EC50 was 4.74 nM.

molecular target: T3, human CAIX antigen (purchased from AcroBiosystems) (human, UniProt Q16790 38-414); assay: BLI (ForteBio), method of Example 3; second run, alongside the humanized antibodies (Table 4)

B1 showed a Kd of 10.3 nM.

molecular target: T4, monkey CAIX on CHO cells (CHO-cyCAIX) (monkey); assay: flow cytometry on CHO-cyCAIX cells
T4 construct: whole, on cells
Experimental: as §1
In order to identify the affinity of the antibody to monkey CAIX (cyCAIX) at cell level, the cell strain was constructed according to the method described in Example 4, the affinity of the purified humanized antibody to CHO-cyCAIX was identified at cell level, and the results were shown in FIG. 3 and Table 6.

B1 and B2 are within 1.5-fold of each other in EC50: 7.32 nM for the first, 6.55 nM for the second.

B3 and B4 are within 1.5-fold of each other in EC50: 9.42 nM for the first, 13.5 nM for the second.

First: B5
Second: B6
The EC50 of the first is 1.8-fold lower: 14.3 nM for the first, 25.1 nM for the second. The first is the more potent here.

Going from B7 to B8, the EC50 rises from 8.39 nM to 22.7 nM (2.7-fold). The first is the more potent here.

molecular target: T3, human CAIX antigen (purchased from …); assay: BLI (ForteBio), antibody on AHQ sensor, 100 nM antigen, 1:1 model

First: B9
Second: B10
The Kd of the first is 4-fold higher: 1.14 nM for the first, 0.282 nM for the second. The second binds more tightly here.

First: B11
Second: B1
The Kd of the first is 2.4-fold higher: 1.34 nM for the first, 0.557 nM for the second. The second binds more tightly here.

Compared with B2, B12 is 5.6-fold higher in Kd: 0.218 nM for the first, 1.21 nM for the second. The first binds more tightly here.

First: B13
Second: B3
The Kd of the first is 4.6-fold lower: 0.109 nM for the first, 0.498 nM for the second.

B14 and B15 are within 1.5-fold of each other in Kd: 2.04 nM for the first, 2.39 nM for the second.

Going from B17 to B16, the Kd rises from 0.529 nM to 2.53 nM (4.8-fold).

First: B9
Second: B10
The koff of the first is 5.4-fold higher: 0.00141 s⁻¹ for the first, 0.000259 s⁻¹ for the second.

B11 and B1 are within 1.5-fold of each other in koff: 0.000798 s⁻¹ for the first, 0.000662 s⁻¹ for the second.

First: B2
Second: B12
The koff of the first is 5.3-fold lower: 0.0002 s⁻¹ for the first, 0.00106 s⁻¹ for the second.

Compared with B13, B3 is 4.5-fold higher in koff: 0.000109 s⁻¹ for the first, 0.000492 s⁻¹ for the second.

First: B14
Second: B15
The koff of the first is 1.8-fold lower: 0.00139 s⁻¹ for the first, 0.00249 s⁻¹ for the second.

Going from B17 to B16, the koff rises from 0.000513 s⁻¹ to 0.00125 s⁻¹ (2.4-fold).

B9 and B10 are within 1.5-fold of each other in kon: 1.24e+06 M⁻¹ s⁻¹ for the first, 919000 M⁻¹ s⁻¹ for the second.

Going from B11 to B1, the kon rises from 594000 M⁻¹ s⁻¹ to 1.19e+06 M⁻¹ s⁻¹ (2-fold).

B2 and B12 are within 1.5-fold of each other in kon: 917000 M⁻¹ s⁻¹ for the first, 875000 M⁻¹ s⁻¹ for the second.

B13 and B3 are within 1.5-fold of each other in kon: 999000 M⁻¹ s⁻¹ for the first, 988000 M⁻¹ s⁻¹ for the second.

First: B14
Second: B15
The kon of the first is 1.5-fold lower: 682000 M⁻¹ s⁻¹ for the first, 1.04e+06 M⁻¹ s⁻¹ for the second.

Compared with B17, B16 is 2-fold lower in kon: 969000 M⁻¹ s⁻¹ for the first, 495000 M⁻¹ s⁻¹ for the second.

molecular target: T3, human CAIX antigen (purchased from …); assay: BLI (ForteBio), method of Example 3

Going from B1 to B2, the koff falls from 0.00159 s⁻¹ to 0.000556 s⁻¹ (2.9-fold).

Going from B3 to B4, the koff rises from 0.0001 s⁻¹ to 0.00142 s⁻¹ (14-fold).

First: B5
Second: B6
The koff of the first is 1.8-fold higher: 0.00185 s⁻¹ for the first, 0.00105 s⁻¹ for the second.

Going from B7 to B8, the koff rises from 0.0001 s⁻¹ to 0.00177 s⁻¹ (18-fold).

B1 and B2 are within 1.5-fold of each other in kon: 155000 M⁻¹ s⁻¹ for the first, 136000 M⁻¹ s⁻¹ for the second.

B3 and B4 are within 1.5-fold of each other in kon: 271000 M⁻¹ s⁻¹ for the first, 181000 M⁻¹ s⁻¹ for the second.

B5 and B6 are within 1.5-fold of each other in kon: 179000 M⁻¹ s⁻¹ for the first, 158000 M⁻¹ s⁻¹ for the second.

B7 and B8 are within 1.5-fold of each other in kon: 260000 M⁻¹ s⁻¹ for the first, 216000 M⁻¹ s⁻¹ for the second.

Going from B2 to B3, the Kd falls from 4.08 nM to 0.369 nM (11-fold). The second binds more tightly here.

B4 and B5 are within 1.5-fold of each other in Kd: 7.84 nM for the first, 10.3 nM for the second.

First: B6
Second: B7
The Kd of the first is 17-fold higher: 6.68 nM for the first, 0.384 nM for the second.

For B8, the Kd was 8.2 nM.
